Experimental data: patent US7754684B2, “Macromolecular platinum chelates” (priority 2003, dated 2010)

Tests used:
[1] = Platinum release from PBS (percent small Pt species released from polymer-platinum conjugate); assay type: physicochemical; conditions: PBS at 37° C.
Experimental: The compound tested comprised a poly(N-(2-hydroxypropyl)methacrylamide (90%)-co-(N-(linker)-Pt complex)methacrylamide (10%)) polymer and either cis-diammine or 1R,2R-diaminocyclohexane (DACH) as the stable ligands/chelate of the Pt complex. The leaving-ligand comprised an N,O bidentate ligand with amidoaspartate (Asp) or amidomalonate (Ama).
The percent of small platinum species released over time was measured by dissolving about 30 mg of the polymer-platinum conjugate in 15 mL of phosphate buffered saline (10 mM phosphate, 123 mM Cl^−) and incubating the solution at 37° C. in a water bath. At indicated times, 2.0 mL aliquots were transferred to a centrifugal filter with a 3 kDa nominal molecular weight cutoff (Centricon YM-3 from Millipore) and spun until >1.5 mL of filtrate had accumulated. The timed filtrates and the original solution were analyzed for platinum by ICP-OES. The percent of small Pt species released was determined using the formula: ((ppm Pt in filtrate)/(ppm Pt in stock solution)) X 100.

[2] = Table 2. Comparison of representative compounds C1-C13 of this invention versus carboplatin.
From the text: Table printed on a drawing sheet, FIGURE 15
Title: Table 2. Comparison of representative compounds C1-C13 of this invention versus carboplatin.
The patent's description of the figure: FIG. 15 is Table 2.
First reader's note: Relative TGI is an in-vivo tumor growth inhibition class relative to carboplatin; C2, C3 and C5 are printed with 'Ama-Pt' (hyphen) instead of 'Ama=Pt'.

[3] = Maximum tolerated dosage used in the B16F10 murine melanoma model; assay type: in vivo, C57BL/6 mice; conditions: mice
Experimental: C57BL/6 mice (10 animals per compound treatment group) were dosed with the amount of compound indicated. The mice were inoculated subcutaneously in the right rear flank with 10^6 B16F10 murine melanoma cells. Beginning at day 6 post-implantation, tumor size was measured daily using calipers under light Methfurane anesthesia. The mass of the resulting tumor in milligrams was estimated using the formula W^2(L)/2 where W is the length of the shorter tumor dimension and L is the length of the longer dimension. Treatment was commenced when the tumor was 50-75 mg or larger. Each animal was followed individually so that Day 1 of treatment for each animal was the day on which that animal's tumor reached the appropriate size. The test compounds were administered […] through the tail vein using a volume of 0.2-0.3 mL per 20 grams body weight. The animals were observed and weighed daily prior to dosing to establish the proper dosing volume for that day and such was continued until the end of the study. […]

[4] = Platinum release from PBS (percent small Pt species released from polymer-platinum conjugate); assay type: physicochemical
[5] = system: B16F10 murine melanoma cells; experiment: B16F10 murine melanoma tumor growth inhibition in C57BL/6 mice; assay type: in vivo; conditions: each compound at its MTD (20 mgPt/kg vs. 50 mgPt/Kg), groups of ten mice
Experimental: C57BL/6 mice (10 animals per compound treatment group) were dosed with the amount of compound indicated. The mice were inoculated subcutaneously in the right rear flank with 10^6 B16F10 murine melanoma cells. Beginning at day 6 post-implantation, tumor size was measured daily using calipers under light Methfurane anesthesia. The mass of the resulting tumor in milligrams was estimated using the formula W^2(L)/2 where W is the length of the shorter tumor dimension and L is the length of the longer dimension. Treatment was commenced when the tumor was 50-75 mg or larger. Each animal was followed individually so that Day 1 of treatment for each animal was the day on which that animal's tumor reached the appropriate size. The test compounds were administered […] through the tail vein using a volume of 0.2-0.3 mL per 20 grams body weight. The animals were observed and weighed daily prior to dosing to establish the proper dosing volume for that day and such was continued until the end of the study.
Using the above procedure, a number of exemplary compounds of this invention were compared to carboplatin. […]

| Substance | % Pt Release ([1]; 3 h) | % Pt Release ([1]; 24 h) | further results |
| --- | --- | --- | --- |
| Poly(HPMA)-GG-Asp=Pt=1R,2R-DACH [54b] | 3.20% | 10.68% | – |
| p(HMPA)-GFLG-Ama=Pt=DACH [C2] [listing 1 of 2 here] | – | – | Pt release (% at 24 h) [2]: 2.6 % at 24 h |
| p(HMPA)-GFLG-Ama=Pt=DACH [C2] [listing 2 of 2 here] | – | – | maximum tolerated dosage (MTD) [3]: 50 mgPt/kg |
| poly(HPMA)-GFLG-Asp=Pt(NH3)2 [60a] | 1.95% | 5.85% | – |
| poly(HPMA)-GFLG-C3-Sulf-Ama=Pt(NH3)2 [75a] | 3.02% | 5.44% | – |
| poly(HPMA)-GG-Ama=Pt(NH3)2 [53a] | 1.4% | 4.6% | – |
| poly(HPMA)-GG-Ama=Pt=1R,2R-DACH [53b] | 1.3% | 5.5% | – |
| poly(HPMA)-GG-Asp=Pt(NH3)2 [54a] | – | – | Pt release in PBS at 38.C ([4]; 3 hr): 3.92%; Pt release in PBS at 38.C ([4]; 24 hr): 11.02% |
| poly(HPMA)-GGG-Ama=Pt=1R, 2R-DACH [C13] [listing 1 of 2 here] | – | – | Pt release (% at 24 h) [2]: 3.6 % at 24 h |
| poly(HPMA)-GGG-Ama=Pt=1R, 2R-DACH [C13] [listing 2 of 2 here] | – | – | delay in tumor growth, C13 versus C2 (FIG. 14) [5]: prolonged delay in tumor growth compared to compound C2; maximum tolerated dosage (MTD) [3]: 20 mgPt/kg |
| poly(HPMA)-GGGG-Ama=PtDACH [57b] | 0.972% | 3.173% | – |
